In article PMC11568203:
Where “and” joins values, the source holds several entries; their conditions need not be identical. Equal entries are not always repeated.

How the values were obtained:
[1] = molecular target: KLHDC10^41-C-EloB/C with a 10X Histidine tag on EloC (SPR) (UniProt Q6PID8); assay: SPR; Biacore T200; His-tagged KLHDC10 complex captured on Ni-NTA chip (about 300 RU); ubiquitin variants as analytes 2 uM to 0.125 uM, multi-cycle kinetics; 25 mM Tris, 200 mM NaCl, 0.1% Tween20, pH 7.4; 20 °C; 1:1 binding model
KLHDC10(41-C)-EloB/C = KLHDC10(41-C)-EloB/C (UniProt Q6PID8); assay: SPR; Biacore T200; 10xHis-KLHDC10-EloB/C captured on a Ni-NTA chip; UB variants as analytes, 2 uM to 0.125 uM; 25 mM Tris, 200 mM NaCl, 0.1% Tween20, pH 7.4, 20 °C; multi-cycle kinetics, 1:1 binding model; two replicates

- Kd [1]: 300 nM
- Kd (KLHDC10(41-C)-EloB/C): 319 nM and 393 nM
Substance: ubiquitin (from UniProt P0CG48 1-76) (natural protein)
